Assay results: patent publication US12103979B2, “N-acetylated and non-acetylated dipeptides containing arginine to reduce the viscosity of viscous compositions of therapeutic polypeptides” (AMGEN INC., priority 2017, dated 2024)

B1: Sclerostin (2B8): therapeutic antibody; IgG2, Lambda; LC SEQ ID NO 79, HC SEQ ID NO 80 (antibody, listed as Homo sapiens)
heavy: MEFGLSWVFLVALLRGVQCQVQLVESGGGVVQPGRSLRLSCAASGFTFSSYVMHWVRQAPGKGLEWVAVIWYDGSNKYYADSVKGRFTISRDNSKNTLYLQMNSLRAEDTAVYYCAREGYDYGEDYYYYGMDVWGQGTTVTVSSASTKGPSVFPLAPCSRSTSESTAALGCLVKDYFPEPVTVSWNSGALTSGVHTFPAVLQSSGLYSLSSVVTVPSSNFGTQTYTCNVDHKPSNTKVDKTVERKCCVECPPCPAPPVAGPSVFLFPPKPKDTLMISRTPEVTCVVVDVSHEDPEVQFNWYVDGVEVHNAKTKPREEQFNSTFRVVSVLTVVHQDWLNGKEYKCKVSNKGLPAPIEKTISKTKGQPREPQVYTLPPSREEMTKNQVSLTCLVKGFYPSDIAVEWESNGQPENNYKTTPPMLDSDGSFFLYSKLTVDKSRWQQGNVFSCSVMHEALHNHYTQKSLSLSPGK
light: MAWAPLLLTLLAHCTGSWANFMLTQPHSVSESPGKTVAISCTRNSGSIASNSVQWYQQRPGSSPTTVIFEDNQRPSGVPDRFSGSIDSSSNSASLTISGLKTEDEADYYCQSYDSNNWVFGGGTKLTVLGQPKANPTVTLFPPSSEELQANKATLVCLISDFYPGAVTVAWKADGSPVKAGVETTKPSKQSNNKYAASSYLSLTPEQWKSHRSYSCQVTHEGSTVEKTVAPTECS
B2: Hepcidin: therapeutic antibody; IgG2, Lambda; LC SEQ ID NO 31, HC SEQ ID NO 32 (antibody, listed as Homo sapiens)
heavy: MEFGLSWVFLVALLRGVQCQVQLVESGGGVVQPGRSLRLSCAASGFTFSSYGMHWVRQAPGKGLEWVAVIWYAESNKYYADSVKGRFTISRDNSKNTLYLQMNSLRAEDTAVYYCARAQEGIAPDAFDIWGQGTMVTVSSASTKGPSVFPLAPCSRSTSESTAALGCLVKDYFPEPVTVSWNSGALTSGVHTFPAVLQSSGLYSLSSVVTVPSSNFGTQTYTCNVDHKPSNTKVDKTVERKCCVECPPCPAPPVAGPSVFLFPPKPKDTLMISRTPEVTCVVVDVSHEDPEVQFNWYVDGVEVHNAKTKPREEQFNSTFRVVSVLTVVHQDWLNGKEYKCKVSNKGLPAPIEKTISKTKGQPREPQVYTLPPSREEMTKNQVSLTCLVKGFYPSDIAVEWESNGQPENNYKTTPPMLDSDGSFFLYSKLTVDKSRWQQGNVFSCSVMHEALHNHYTQKSLSLSPGK
light: MDMRVPAQLLGLLLLWLRGARCYELTQPPSVSVSPGQTATITCSGDKLGERYASWYQQRPGQSPVLVIYQDIKRPSGIPERFSGSNSGNTATLTISGTQAMDEADYFCQAWYSSTNVLFGGGTKLTVLGQPKAAPSVTLFPPSSEELQANKATLVCLISDFYPGAVTVAWKADSSPVKAGVETTTPSKQSNNKYAASSYLSLTPEQWKSHRSYSCQVTHEGSTVEKTVAPTECS
B3: TSLP: therapeutic antibody; IgG2, Lambda; LC SEQ ID NO 69, HC SEQ ID NO 70 (antibody, listed as Homo sapiens)
heavy: MGSTAILGLLLAVLQGGRAQMQLVESGGGVVQPGRSLRLSCAASGFTFRTYGMHWVRQAPGKGLEWVAVIWYDGSNKHYADSVKGRFTITRDNSKNTLNLQMNSLRAEDTAVYYCARAPQWELVHEAFDIWGQGTMVTVSSASTKGPSVFPLAPCSRSTSESTAALGCLVKDYFPEPVTVSWNSGALTSGVHTFPAVLQSSGLYSLSSVVTVPSSNFGTQTYTCNVDHKPSNTKVDKTVERKCCVECPPCPAPPVAGPSVFLFPPKPKDTLMISRTPEVTCVVVDVSHEDPEVQFNWYVDGVEVHNAKTKPREEQFNSTFRVVSVLTVVHQDWLNGKEYKCKVSNKGLPAPIEKTISKTKGQPREPQVYTLPPSREEMTKNQVSLTCLVKGFYPSDIAVEWESNGQPENNYKTTPPMLDSDGSFFLYSKLTVDKSRWQQGNVFSCSVMHEALHNHYTQKSLSLSPGK
light: MGSTAILGLLLAVLQGGRASYVLTQPPSVSVAPGQTARITCGGNNLGSKSVHWYQQKPGQAPVLVVYDDSDRPSWIPERFSGSNSGNTATLTISRGEAGDEADYYCQVWDSSSDHVVFGGGTKLTVLGQPKAAPSVTLFPPSSEELQANKATLVCLISDFYPGAVTVAWKADSSPVKAGVETTTPSKQSNNKYAASSYLSLTPEQWKSHRSYSCQVTHEGSTVEKTVAPTECS
B4: Dkk1 (11H10): therapeutic antibody; IgG2, Kappa; LC SEQ ID NO 71, HC SEQ ID NO 72 (antibody, listed as Homo sapiens)
heavy: MDIRLSLAFLVLFIKGVQCEVQLVESGGGLVQPANSLKLSCAASGFTFSDYAMAWVRQSPKKGLEWVATIIYDGSSTYYRDSVKGRFTISRDNAKSTLYLQMDSLRSEDTATYYCATGLGIATDYFDYWGQGVLVTVSSAETTAPSVYPLAPGTALKSNSMVTLGCLVKGYFPEPVTVTWNSGALSSGVHTFPAVLQSGLYTLTSSVTVPSSTWPSQTVTCNVAHPASSTKVDKKIVPRNCGGDCKPCICTGSEVSSVFIFPPKPKDVLTITLTPKVTCVVVDISQDDPEVHFSWFVDDVEVHTAQTRPPEEQFNSTFRSVSELPILHQDWLNGRTFRCKVTSAAFPSPIEKTISKPEGRTQVPHVYTMSPTKEEMTQNEVSITCMVKGFYPPDIYVEWQMNGQPQENYKNTPPTMDTDGSYFLYSKLNVKKEKWQQGNTFTCSVLHEGLHNHHTEKSLSHSPGK
light: MGVPTHLLGLLLLWITHAICDIRMTQSPASLSASLGETVNIECLASEDIYSDLAWYQQKPGKSPQLLIYNANSLQNGVPSRFSGSGSGTQYSLKINSLQSEDVATYFCQQYNNYPPTFGGGTKLELKRADAAPTVSIFPPSTEQLATGGASVVCLMNNFYPRDISVKWKIDGTERRDGVLDSVTDQDSKDSTYSMSSTLSLTKADYESHNLYTCEVVHKTSSSPVVKSFNRNEC
B5: CGRP: therapeutic antibody; IgG2, Lambda; LC SEQ ID NO 29, HC SEQ ID NO 30 (antibody, listed as Homo sapiens)
heavy: MEFGLSWVFLVALLRGVQCQVQLVESGGGVVQPGRSLRLSCAASGFTFSSFGMHWVRQAPGKGLEWVAVISFDGSIKYSVDSVKGRFTISRDNSKNTLFLQMNSLRAEDTAVYYCARDRLNYYDSSGYYHYKYYGMAVWGQGTTVTVSSASTKGPSVFPLAPCSRSTSESTAALGCLVKDYFPEPVTVSWNSGALTSGVHTFPAVLQSSGLYSLSSVVTVPSSNFGTQTYTCNVDHKPSNTKVDKTVERKCCVECPPCPAPPVAGPSVFLFPPKPKDTLMISRTPEVTCVVVDVSHEDPEVQFNWYVDGVEVHNAKTKPREEQFNSTFRVVSVLTVVHQDWLNGKEYKCKVSNKGLPAPIEKTISKTKGQPREPQVYTLPPSREEMTKNQVSLTCLVKGFYPSDIAVEWESNGQPENNYKTTPPMLDSDGSFFLYSKLTVDKSRWQQGNVFSCSVMHEALHNHYTQKSLSLSPGK
light: MTCSPLLLTLLIHCTGSWAQSVLTQPPSVSAAPGQKVTISCSGSSSNIGNNYVSWYQQLPGTAPKLLIYDNNKRPSGIPDRFSGSKSGTSTTLGITGLQTGDEADYYCGTWDSRLSAVVFGGGTKLTVLGQPKANPTVTLFPPSSEELQANKATLVCLISDFYPGAVTVAWKADGSPVKAGVETTKPSKQSNNKYAASSYLSLTPEQWKSHRSYSCQVTHEGSTVEKTVAPTECS
B6: PCSK9: therapeutic antibody; IgG2, Lambda; LC SEQ ID NO 73, HC SEQ ID NO 74 (antibody, listed as Homo sapiens)
heavy: MDWTWRILFLVAAATGVHSEVQLVQSGAEVKKPGASVKVSCKASGYTLTSYGISWVRQAPGQGLEWMGWVSFYNGNTNYAQKLQGRGTMTTDPSTSTAYMELRSLRSDDTAVYYCARGYGMDVWGQGTTVTVSSASTKGPSVFPLAPCSRSTSESTAALGCLVKDYFPEPVTVSWNSGALTSGVHTFPAVLQSSGLYSLSSVVTVPSSNFGTQTYTCNVDHKPSNTKVDKTVERKCCVECPPCPAPPVAGPSVFLFPPKPKDTLMISRTPEVTCVVVDVSHEDPEVQFNWYVDGVEVHNAKTKPREEQFNSTFRVVSVLTVVHQDWLNGKEYKCKVSNKGLPAPIEKTISKTKGQPREPQVYTLPPSREEMTKNQVSLTCLVKGFYPSDIAVEWESNGQPENNYKTTPPMLDSDGSFFLYSKLTVDKSRWQQGNVFSCSVMHEALHNHYTQKSLSLSPGK
light: MDMRVPAQLLGLLLLWLRGARCESALTQPASVSGSPGQSITISCTGTSSDVGGYNSVSWYQQHPGKAPKLMIYEVSNRPSGVSNRFSGSKSGNTASLTISGLQAEDEADYYCNSYTSTSMVFGGGTKLTVLGQPKAAPSVTLFPPSSEELQANKATLVCLISDFYPGAVTVAWKADSSPVKAGVETTTPSKQSNNKYAASSYLSLTPEQWKSHRSYSCQVTHEGSTVEKTVAPTECS

Assay: Viscosity of therapeutic antibodies of Table 1 at exemplary concentration
Assay type: physicochemical
Conditions: at the Conc. (133.9-162.5 mg/ml)

Molecule | Viscosity (cP)
B1 | 30.0 cP
B2 | 9.9 cP
B3 | 21.4 cP
B4 | 22.5 cP
B5 | 9.6 cP

Assay: pI of therapeutic antibodies of Table 1
Assay type: physicochemical
Conditions: not given

Molecule | pl
B1 | 6.7
B2 | 7.3
B3 | 7.2
B4 | 8.2
B6 | 8.1
B5 | 8.8
